The record followed here is patent publication US20220002417A1 (BAILI BIO CHENGDU PHARMACEUTICAL, published 2022).

Changes are numbered by the printed parent chain.

The labels stand for the following.
B1: AB3HU (humanized form of antibody AB3) (antibody, human IgG1, kappa, V domains shown)
VH: EVQLVESGGGLVQPGGSLRLSCAASGFSLSSYWMSWVRQAPGKGLEWIGVIDTNVYIYYANWAKGRFTISRDNSKNTLYLQMNSLRAEDTAVYYCARYVGNNDDYINLWGQGTLVTVSS
VL: DIQMTQSPSTLSASVGDRVTITCQSSQSVYNGYWLSWYQQKPGKAPKLLIYGASTLASGVPSRFSGSGSGTEFTLTISSLQPDDFATYYCLGSYTSSTENSFGGGTKVEIKR
notes: Humanized, human gamma-1 / kappa constant domains
B2: AB1HU (humanized form of antibody AB1) (antibody, human IgG1, kappa, V domains shown)
VH: EVQLLESGGGLVQPGGSLRLSCAASGFSFSSGYDMCWVRQAPGKGLEWIACIAAGSAGITYDANWAKGRFTISRDNSKNTLYLQMNSLRAEDTAVYYCARSAFSFDYAMDLWGQGTLVTVSS
VL: DIQMTQSPSTLSASVGDRVTITCQASQSISSHLNWYQQKPGKAPKLLIYKASTLASGVPSRFSGSGSGTEFTLTISSLQPDDFATYYCQQGYSWGNVDNVFGGGTKVEIKR
notes: as for B1
B3: AB3 (rabbit/human chimeric anti-PD-L1 antibody) (antibody, human IgG1, kappa, V domains shown)
VH: QEQLEESGGGLVTPGGTLTLTCTVSGFSLSSYWMSWVRQAPGKGLEWIGVIDTNVYIYYANWAKGRFTISKTSTTVDLKITSPTTEDTATYFCARYVGNNDDYINLWGPGTLVTVSS
VL: AVLTQTPSPVSAAVGGTVSISCQSSQSVYNGYWLSWYQQKPGQPPKLLIYGASTLASGVPSRFKGSGSGTQFTLTINDVQCDDAATYYCLGSYTSSTENSFGGGTEVVVKR
notes: Rabbit variable domains on human IgG1 / human kappa constant domains; also called AB3 CHIMERIC
B4: AB5 (rabbit/human chimeric anti-PD-L1 antibody) (antibody, human IgG1, kappa, V domains shown)
VH: QSVEESGGRLVTPGTPLTLTCTVSGIDLNTYDMIWVRQAPGKGLEWIGIITYSGSRYYANWAKGRFTISKTSTTVDLRITSPTTEDTATYFCARDYMSGSHLWGPGTLVTVSS
VL: AYDMTQTPASVEVAVGGTVTIKCQASEDIYSFLAWYQLKPGQSPKLLIHSASSLASGVSSRFKGSGSGTHFTLTISGVECADAATYYCQQGYGKNNVDNAFGGGTEVVVKR
notes: Rabbit variable domains on human IgG1 / human kappa constant domains; also called AB5 CHIMERIC
B5: AB4HU (humanized form of antibody AB4) (antibody, human IgG1, kappa, V domains shown)
VH: EVQLVESGGGLVQPGGSLRLSCTVSGIDLSVINMGWVRQAPGKGLEWIGTITYVGNTYYASWAKGRFTISKTSTTVDLKITSPTTEDTAVYYCARESGTIYYSYFNLWGQGTLVTVSS
VL: AFELTQSPSSLSASVGDRVTIKCQASESISNYLSWYQQIPGKVPKLLIYYASNLASGVPSRFSGSGSGTDFTLTISSLQPEDVATYYCQSYYGGGSAYTFGGGTKVEIKR
notes: as for B1
B6: AB4 (rabbit/human chimeric anti-PD-L1 antibody) (antibody, human IgG1, kappa, V domains shown)
VH: QSVEESGGRLVTPGTPLTLTCTVSGIDLSVINMGWVRQAPGEGLEWIGTITYVGNTYYASWAKGRFTISKTSTTVDLKITSPTTEDTATYFCARESGTIYYSYFNLWGQGTLVTVSS
VL: AFELTQTPASVSEPVGGTVTIKCQASESISNYLSWYQQIPGQPPNLLIYYASNLASGVPSRFKGSGSGTEFTLTISDLECADAATYYCQSYYGGGSAYTFGGGTEVVVKR
notes: Rabbit variable domains on human IgG1 / human kappa constant domains; also called AB4 CHIMERIC
B7: AB1 (rabbit/human chimeric anti-PD-L1 antibody) (antibody, human IgG1, kappa, V domains shown)
VH: QEQLVESGGGLVQPEGSLTLTCKASGFSFSSGYDMCWVRRAPGKGLEWIACIAAGSAGITYDANWAKGRFTISKTSSTTVTLQMTSLTAADTATYFCARSAFSFDYAMDLWGPGTLVTVSS
VL: DPVLTQTPASVEVAVGGTVTIKCQASQSISSHLNWYQQKPGQPPKLLIYKASTLASGVPSRFKGSGSGTEFTLTISSVQCDNAATYYCQQGYSWGNVDNVFGGGTEVVVKR
notes: Rabbit variable domains on human IgG1 / human kappa constant domains; purified by protein A from HEK-293 supernatants; also called AB1 CHIMERIC
B8: AB2HU (humanized form of antibody AB2) (antibody, human IgG1, kappa, V domains shown)
VH: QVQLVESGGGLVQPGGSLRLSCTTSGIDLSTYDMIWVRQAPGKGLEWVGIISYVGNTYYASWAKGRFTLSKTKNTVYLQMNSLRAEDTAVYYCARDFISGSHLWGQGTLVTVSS
VL: AYDMTQSPSSVSASVGDRVTINCQASESISSFLSWYQQKPGKAPKLLIFSASTLASGVPSRFSGSGSGTDFTLTISSLQPEDFATYYCQQGYSKSNVDNAFGGGTKVEIKR
notes: as for B1
B9: AB5HU (humanized form of antibody AB5) (antibody, human IgG1, kappa, V domains shown)
VH: QSVEESGGGLVQPGGSLRLSCTASGIDLNTYDMIWVRQAPGKGLEWVGIITYSGSRYYANWAKGRFTISKDNTKNTVYLQMNSLRAEDTAVYYCARDYMSGSHLWGQGTLVTVSS
VL: B8 VL with N22K, S28D, S30Y, S34A, F49H, T53S, S93G, S95N
notes: as for B1
B10: AB2 (rabbit/human chimeric anti-PD-L1 antibody) (antibody, human IgG1, kappa, V domains shown)
VH: QSLEESGGRLVTPGTPLTLTCTTSGIDLSTYDMIWVRQAPGKGLEYIGIISYVGNTYYASWAKGRFTLSKTSTTVDLRITSPTTEDTATYFCARDFISGSHLWGPGTLVTVSS
VL: AYDMTQTPASVSAAVGGTVTINCQASESISSFLSWYQQKPGQRPRLLIFSASTLASGVPSRFKGSGSGTEFTLTISGVECADAATYYCQQGYSKSNVDNAFGGGTEVVVKR
notes: Rabbit variable domains on human IgG1 / human kappa constant domains; also called AB2 CHIMERIC

In the assay the target is T1, human PD-L1 extracellular domain (human, UniProt Q9NZQ7 19-238).
T1 construct: also called recombinant PD-L1; recombinant human PD-L1 extracellular domain protein
T1 sequence (Q9NZQ7 19-238 limits assumed): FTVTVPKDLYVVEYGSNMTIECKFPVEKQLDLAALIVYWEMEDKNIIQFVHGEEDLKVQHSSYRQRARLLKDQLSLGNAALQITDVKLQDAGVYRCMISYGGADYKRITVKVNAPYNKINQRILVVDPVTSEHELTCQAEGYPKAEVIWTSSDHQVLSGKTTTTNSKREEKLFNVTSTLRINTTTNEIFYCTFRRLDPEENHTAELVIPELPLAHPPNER
The assay can be described thus: BLI (Octet Red 96), antibody on anti-human Fc biosensor, PD-L1 ECD in solution, 1:1 global fit. The method, then: The binding kinetics of selected anti-PD-L1 antibodies AB1-AB5 and AB1HU-AB5HU was determined by bio-layer interferometry analysis on a ForteBio Octet Red 96 instrument. First, purified antibodies were produced by protein A chromatography using HEK-293 transiently-transfected antibody supernatants. This assay was performed by immobilizing the purified antibodies to anti-human Fc biosensors. PD-L1 binding to and dissociation from the biosensors was then observed at various concentrations of PD-L1. Specifically, eight anti-human Fc biosensors were placed into wells containing the same purified antibody for 5 minutes. Biosensors were equilibrated in kinetics buffer (Pall ForteBio) for 1 minute to establish a baseline. Association of PD-L1 was observed by placing the biosensors into wells containing various concentrations of human PD-L1 extracellular domain for 5 minutes. Dissociation was measured after transfer of the biosensors into kinetics buffer and monitoring the interferometry signals for 15 minutes. All steps of the assay were performed at 30° C. with shaking at 1000 RPM. The on and off rates (kon and koff) and the equilibrium binding constant KD were determined using the software provided by the manufacturer and were fit using a 1:1 binding global fit model comprising several of the concentrations tested.
By Kd is commonly meant the equilibrium constant for the complex coming apart. What is called koff is the rate constant with which the complex falls apart. The low end stands for a long-lived complex, the high end for a short-lived complex. A word on the kon: it is the rate constant with which the complex forms. Read a low kon as slow association. B1: the Kd was 1.81 nM, the koff is 0.000337 s⁻¹ and the on-rate constant (kon) is 186000 M⁻¹ s⁻¹.
B2 gave a Kd of 0.422 nM, a koff of 0.000239 s⁻¹ and a kon of 568000 M⁻¹ s⁻¹.
For B3, in that order: 0.467 nM, 0.000144 s⁻¹ and 308000 M⁻¹ s⁻¹.
For B4, in that order: 0.286 nM, 0.000175 s⁻¹ and 613000 M⁻¹ s⁻¹.
For B5, in that order: 1.7 nM, 0.000766 s⁻¹ and 451000 M⁻¹ s⁻¹.
Consider B6, for which the Kd came to 1.01 nM, the off-rate (koff) was 0.000422 s⁻¹ and the kon stood at 417000 M⁻¹ s⁻¹.
For B7, in that order: 0.347 nM, 0.00015 s⁻¹ and 433000 M⁻¹ s⁻¹.
For B8, in that order: 0.366 nM, 0.000203 s⁻¹ and 553000 M⁻¹ s⁻¹.
On to B9, for which the Kd came to 0.401 nM, the koff came to 0.000234 s⁻¹ and the kon was found to be 583000 M⁻¹ s⁻¹.
For B10, in that order: 0.379 nM, 0.000166 s⁻¹ and 438000 M⁻¹ s⁻¹.
